Experimental findings from patent US20240352445A1 (ABWIZ BIO, published 2024) are described below.

Assay [1] concerns the target T1, SARS-CoV-2 spike protein trimer, Beta (B.1.351) variant (SARS-CoV-2, UniProt P0DTC2 16-1213). The assay is described as follows: BLI (Octet), biotinylated spike trimer on streptavidin sensor, IgG titrated. A general note: Biolayer interferometry detects binding as a change in optical thickness at a sensor tip.
The target of assay [2] is T2, SARS-CoV-2 spike protein trimer, Omicron (B.1.1.529) variant (SARS-CoV-2, UniProt P0DTC2 16-1213).
Assay [3] concerns the target T1, SARS-CoV-2 spike protein trimer, Beta …. The assay is described as follows: ELISA, purified IgG. In general terms: An ELISA detects its analyte on a solid surface through an enzyme-linked reagent.
The target of assay [4] is SARS-CoV-2 spike protein trimer, Gamma (P.1) variant (SARS-CoV-2, UniProt P0DTC2 16-1213). Kind of assay: ELISA, purified IgG.
For assay [5], the target named is SARS-CoV-2 spike protein trimer, Epsilon (B.1.429) variant (SARS-CoV-2, UniProt P0DTC2 16-1213). The assay is described as follows: ELISA, purified IgG.
Assay [6] addresses SARS-CoV-2 spike protein trimer, Kappa (B.1.617.1) variant (SARS-CoV-2, UniProt P0DTC2 16-1213). Kind of assay: ELISA, purified IgG.
In assay [7] the target is SARS-CoV-2 spike protein trimer, Alpha (B.1.1.7) variant (SARS-CoV-2, UniProt P0DTC2 16-1213). The assay is described as follows: ELISA, purified IgG.
The target of assay [8] is T2, SARS-CoV-2 spike protein trimer, …. The assay is described as follows: BLI (Octet), biotinylated spike trimer on streptavidin sensor, IgG titrated.
The target of assay [9] is SARS-CoV-2 spike protein trimer, Delta (B.1.617.2) variant (SARS-CoV-2, UniProt P0DTC2 16-1213). The description is as above.

Numbering of substitutions follows the chain as printed. Bounds are passed on as bounds.

B1: LxC1-G10 (antibody, V domains shown)
VH: EVQLVESGGGLVQPGGSLRLSCTVSGFSLSTYAMSWVRQAPGKGLEWIGVIASNADTYYASWAKGRFTISRDNSKNTLYLQMNSLRAEDTAVYYCARHPGSAGYGYAVYYAMDPWGQGTLVTVSS
VL: DIQMTQSPSSLSASVGDRVTITCQASERVFYGIDWYQQKPGKAPKLLIYGASALWHGVPSRFSGSGSGTDYTLTISSLQPEDFATYYCQQGYMVPIGFGGGTKVEIK
notes: also called light chain engineered candidate
Take B1: in assay [1], the “fold increased affinity compared to hN2Y” value was more than 100 fold. For the same molecule, in assay [2], binding was put at a Kd of 0.051 nM and the “fold improvement in IC50 compared to hN2Y” value is more than 13 fold.

B2: humanized antibody hN2Y (antibody, V domains shown)
VH: B1 VH
VL: DIQMTQSPSSLSASVGDRVTITCKASEDIRYGLNWYQQKPGKAPKLLIYGANTLEAGVPSRFSGSGSGTDYTLTISSLQPEDFATYYCQQGYSTPLTFGGGTKVEIK
The molecule B2 came in with an IC50 in assay [2] of 0.26 µg/mL.

B3: SEQ ID NO 12 (antibody, V domains shown)
VH: B1 VH
VL: DIQMTQSPSSLSASVGDRVTITCQASQPIHYAINWYQQKPGKAPKLLIYGTSHRKMGVPSRFSGSGSGTDYTLTISSLQPEDFATYYCQQGYIVALKFGGGTKVEIK
notes: also called selected clone from LxC libraries; LxC clone
With B3, the binding result in [3], in assay [4], in assay [5], in [6] and in assay [7] was “binds” in each case.

B4: SEQ ID NO 17 (antibody, V domains shown)
VH: B1 VH
VL: DIQMTQSPSSLSASVGDRVTITCQASQPIYYGINWYQQKPGKAPKLLIYGHTYRAWGVPSRFSGSGSGTDFTLTISSLQPEDFATYYCQQGYRVGLGFGGGTKVEIK
notes: As m4
B4: the binding result in assay [3], in [4], in [5], in [6] and in [7] was “binds” in each case.

B5: G10xA1 (antibody, V domains shown)
VH: EVQLVESGGGLVQPGESLRLSCKASGFTFPNQAMTWVRQAPGKGLEWIGVIASNADTYYASWAKGRFTISRDNSKNTLYLQMNSPRAEDTAVYYCARHPGSAGYGYALYYAMDPWGQGTLVTVSS
VL: B1 VL
Consider B5, for which the figures for the “fold improved affinity compared to LxC1-G10” value in assay [8] and in assay [9] were 1.2 fold and more than 20 fold, respectively.

B6: G10xA5 (antibody, V domains shown)
VH: B1 VH with F27Y, S28T, S30F, T31P, Y32P, A33P, M34V, S35T, A107Q, V108Y
VL: B1 VL
Take B6: the “fold improved affinity compared to LxC1-G10” value in assay [8] was 15 fold; in assay [9], more than 20 fold.

B7: SEQ ID NO 18 (antibody, V domains shown)
VH: B1 VH
VL: B2 VL with A51G, N52S, T53Y, E55R, A56W, S93R, T94V, L96I, T97R
notes: As m4; also called selected clone from LxC libraries; LxC clone
Regarding B7, the binding result in assay [3], in [4], in [5], in assay [6] and in assay [7] was “binds” each time.

B8: SEQ ID NO 15 (antibody, V domains shown)
VH: B1 VH
VL: B3 VL with P28K, H53Y, R54L, K55G, M56G, Y71F, A95P, L96N, K97S
notes: As m4
With B8, the binding result in assay [3], in assay [4], in [5], in [6] and in assay [7] was “binds” in each case.

B9: SEQ ID NO 16 (antibody, V domains shown)
VH: B1 VH
VL: B3 VL with P28D, I29V, H30K, H53S, K55G, M56E, I93V, A95S, L96I, K97F
notes: As m4
Turning to B9, the binding result in assay [3], in [4], in assay [5], in [6] and in [7] was “binds” each time.

The Kd is the free concentration of one partner at which half of the binding sites on the other are occupied at equilibrium, for simple one-to-one binding. High values mean a looser complex, low ones a tighter complex. One may read the IC50 as the point on the concentration scale where inhibition reaches its midpoint.
